Measurements taken from paper PMC7137648 (2020).

Target: complement protein C1q (human, UniProt P02745 23-245; P02746 28-253; P02747 29-245)
Experiment: SPR

Sequence of complement protein C1q (P02745 23-245, chain 1 of 3): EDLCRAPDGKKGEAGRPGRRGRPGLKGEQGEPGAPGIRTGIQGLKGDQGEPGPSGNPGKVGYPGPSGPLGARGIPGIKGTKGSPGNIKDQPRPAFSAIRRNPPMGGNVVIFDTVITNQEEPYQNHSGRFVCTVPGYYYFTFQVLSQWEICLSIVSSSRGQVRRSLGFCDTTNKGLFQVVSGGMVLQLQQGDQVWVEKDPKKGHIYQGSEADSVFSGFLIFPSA
Sequence of complement protein C1q (P02746 28-253, chain 2 of 3): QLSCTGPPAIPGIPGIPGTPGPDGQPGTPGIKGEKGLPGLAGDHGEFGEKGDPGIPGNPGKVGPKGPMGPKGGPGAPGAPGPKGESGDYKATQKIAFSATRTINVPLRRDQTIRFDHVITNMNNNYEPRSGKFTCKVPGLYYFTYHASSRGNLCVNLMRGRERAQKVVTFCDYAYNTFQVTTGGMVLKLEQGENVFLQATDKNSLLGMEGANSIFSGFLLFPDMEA
Sequence of complement protein C1q (P02747 29-245, chain 3 of 3): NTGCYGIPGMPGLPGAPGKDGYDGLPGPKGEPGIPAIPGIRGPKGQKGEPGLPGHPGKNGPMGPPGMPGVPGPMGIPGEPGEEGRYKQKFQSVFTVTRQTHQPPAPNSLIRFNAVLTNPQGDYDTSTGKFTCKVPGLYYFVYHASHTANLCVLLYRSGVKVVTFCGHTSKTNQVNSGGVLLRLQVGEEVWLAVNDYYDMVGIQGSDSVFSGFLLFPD

B1: SR-F1(20-221) (domain or fragment)
chain: SELDPKGQHVCVASSPSAELQCCAGWRQKDQECTIPICEGPDACQKDEVCVKPGLCRCKPGFFGAHCSSRCPGQYWGPDCRESCPCHPHGQCEPATGACQCQADRWGARCEFPCACGPHGRCDPATGVCHCEPGWWSSTCRRPCQCNTAAARCEQATGACVCKPGWWGRRCSFRCNCHGSPCEQDSGRCACRPGWWGPECQQLIK
Kd: 19 nM

B2: SR-F1(20-421), recombinant soluble SR-F1 ectodomain (domain or fragment)
chain: SELDPKGQHVCVASSPSAELQCCAGWRQKDQECTIPICEGPDACQKDEVCVKPGLCRCKPGFFGAHCSSRCPGQYWGPDCRESCPCHPHGQCEPATGACQCQADRWGARCEFPCACGPHGRCDPATGVCHCEPGWWSSTCRRPCQCNTAAARCEQATGACVCKPGWWGRRCSFRCNCHGSPCEQDSGRCACRPGWWGPECQQQCECVRGRCSAASGECTCPPGFRGARCELPCPAGSHGVQCAHSCGRCKHNEPCSPDTGSCESCEPGWNGTQCQQPCLPGTFGESCEQQCPHCRHGEACEPDTGHCQRCDPGWLGPRCEDPCPTGTFGEDCGSTCPTCVQGSCDTVTGDCVCSAGYWGPSCNASCPAGFHGNNCSVPCECPEGLCHPVSGSCQPGSGSRDTLIK
modifications: N-linked glycans at Asn 289, 382 and 393
Kd: 154 nM

B3: SR-F1(20-353) (domain or fragment)
chain: SELDPKGQHVCVASSPSAELQCCAGWRQKDQECTIPICEGPDACQKDEVCVKPGLCRCKPGFFGAHCSSRCPGQYWGPDCRESCPCHPHGQCEPATGACQCQADRWGARCEFPCACGPHGRCDPATGVCHCEPGWWSSTCRRPCQCNTAAARCEQATGACVCKPGWWGRRCSFRCNCHGSPCEQDSGRCACRPGWWGPECQQQCECVRGRCSAASGECTCPPGFRGARCELPCPAGSHGVQCAHSCGRCKHNEPCSPDTGSCESCEPGWNGTQCQQPCLPGTFGESCEQQCPHCRHGEACEPDTGHCQRCDPGWLGPRCEDPCPTGTFGEDCGSLIK
modifications: N-linked glycan at Asn 289
Kd: 42 nM
